Data on three substances can be found in patent US20040059519A1.

Where “and” joins values, the source holds several entries; their conditions need not be identical. Equal entries are not always repeated.

The target in experiment [1] is Alpha fetoprotein (UniProt P02771). In words: multiplex sandwich, S10473 capture beads; AFP 0 ng/mL, washed.
Experiment [2] shares this target. Briefly: multiplex sandwich, S10473 capture beads; AFP 1 ng/mL, no wash.
The target is the same in experiment [3]. In words: multiplex sandwich, S10473 capture beads; AFP 4 ng/mL, no wash.
For experiment [4] the target is unchanged. In words: multiplex sandwich, S10473 capture beads; AFP 8 ng/mL, no wash.
The target is the same in experiment [5]. In words: multiplex sandwich, S10473 capture beads; AFP 16 ng/mL, no wash.
The target is the same in experiment [6]. In words: multiplex sandwich, S10473 capture beads; AFP 62 ng/mL, no wash.
Experiment [7] shares this target. Briefly: multiplex sandwich, S10473 capture beads; AFP 0.5 ng/mL, no wash.
Experiment [8] concerns the target Human chorionic gonadotropin (human) (UniProt P01215). Briefly: MAB602 capture beads, flow cytometry; hCG 100.0 ng/mL, anti-AFP probe.
Chain of UniProt P01215 (P01215 25-116, chain 1 of 2, other chains not shown): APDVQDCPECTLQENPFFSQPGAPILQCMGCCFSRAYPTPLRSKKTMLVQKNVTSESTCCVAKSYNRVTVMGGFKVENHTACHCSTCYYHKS
Experiment [9] concerns the target Alpha fetoprotein (UniProt P02771). In words: anti-AFP capture beads, flow cytometry; AFP 0.0 ng/mL, anti-AFP probe.
Experiment [10] shares this target. Briefly: anti-AFP capture beads, flow cytometry; AFP 1.0 ng/mL, anti-AFP probe.
The target of experiment [11] is Human chorionic gonadotropin (human) (UniProt P01215). In words: anti-AFP capture beads, flow cytometry; hCG 0.0 ng/mL, anti-AFP probe.
The target is the same in experiment [12]. In words: anti-AFP capture beads, flow cytometry; hCG 0.1 ng/mL, anti-AFP probe.
In experiment [13] the target is Alpha fetoprotein (UniProt P02771). Briefly: multiplex no-wash sandwich, S10473 beads; serum Level 3, AFP 223 U/mL.
Experiment [14] shares this target. Briefly: anti-AFP capture beads, flow cytometry; AFP 1000.0 ng/mL, anti-AFP probe.
Experiment [15] has as its target Neutravidin (deglycosylated avidin) (UniProt P02701). Briefly: multiplex, Neutravidin bead 40/60 without peptide, flow cytometry.
Chain of UniProt P02701 (P02701 25-152 limits assumed): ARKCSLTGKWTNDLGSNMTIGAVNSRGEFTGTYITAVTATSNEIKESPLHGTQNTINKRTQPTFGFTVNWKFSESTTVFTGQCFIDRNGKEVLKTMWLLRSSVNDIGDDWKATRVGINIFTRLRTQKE
For experiment [16], the target named is Peptide 1 …-biotin. In words: single-analyte peptide bead, flow cytometry; MAB 384-Bodipy 15.5 ug/mL.
The target of experiment [17] is Peptide 5 …-biotin (human). The description is as above.
Experiment [18] has as its target Peptide 7 …-biotin. The description is as above.
Experiment [19] deals with Peptide 8 …-biotin. The description is as above.
Experiment [20] has as its target Neutravidin (deglycosylated avidin) (UniProt P02701). In words: single-analyte, Neutravidin bead 70/40 without peptide, flow cytometry.
The target is the same in experiment [21]. In words: single-analyte, Neutravidin bead 70/50 without peptide, flow cytometry.
Experiment [22] addresses Peptide 1 …-biotin. In words: multiplex peptide beads, flow cytometry; beads pre-incubated with free biotin 10 ug/mL.
The next experiment has as its target Peptide 2 …-biotin. The description is as above.
The target in a further experiment is Peptide 3 …-biotin. The description is as above.
A further experiment has as its target Peptide 4 …-biotin. The description is as above.
Experiment [23] has as its target Peptide 5 …-biotin (human). The description is as above.
The target in a further experiment is Peptide 6 …-biotin. Described as above.
The target in experiment [24] is Peptide 7 …-biotin. The experiment is described as above.
For experiment [25], the target named is Peptide 8 …-biotin. The description is as above.
The target of a further experiment is Peptide 9 …-biotin. The experiment is described as above.
Experiment [26] addresses Human chorionic gonadotropin (human) (UniProt P01215). In words: sandwich, MAB602 capture beads, flow cytometry; hCG 2 ng/mL.
Experiment [27] has the same target. In words: sandwich, MAB602 capture beads, flow cytometry; hCG 0.02 ng/mL.
Experiment [28] shares this target. Briefly: sandwich, MAB602 capture beads, flow cytometry; hCG 2000 ng/mL.
For experiment [29] the target is unchanged. Briefly: bead sandwich, flow cytometry; capture A1 beads, hCG 20.0 ug/mL.
For experiment [30] the target is unchanged. Briefly: multiplex sandwich, MAB602 capture beads; hCG 125 ng/mL, washed.
Experiment [31] has the same target. In words: multiplex sandwich, MAB602 capture beads; hCG 250 ng/mL, washed.
For experiment [32] the target is unchanged. In words: multiplex sandwich, MAB602 capture beads; hCG 62 ng/mL, no wash.
The target is the same in experiment [33]. In words: multiplex sandwich, MAB602 capture beads; hCG 1000 ng/mL, washed.
The target is the same in experiment [34]. Briefly: multiplex sandwich, MAB602 capture beads; hCG 250 ng/mL, no wash.
Experiment [35] shares this target. Briefly: MAB602 capture beads, flow cytometry; hCG 0.0 ng/mL, anti-hCG probe.
Experiment [36] has the same target. Briefly: bead sandwich, flow cytometry; capture A1 beads, no hCG (background).
Experiment [37] has the same target. In words: bead sandwich, flow cytometry; capture A3 beads, no hCG (background).
For experiment [38], the target named is Alpha fetoprotein (UniProt P02771). Briefly: anti-AFP capture beads, flow cytometry; AFP 1.0 ng/mL, anti-hCG probe.

Chain of UniProt P02771 (P02771 19-609 limits assumed): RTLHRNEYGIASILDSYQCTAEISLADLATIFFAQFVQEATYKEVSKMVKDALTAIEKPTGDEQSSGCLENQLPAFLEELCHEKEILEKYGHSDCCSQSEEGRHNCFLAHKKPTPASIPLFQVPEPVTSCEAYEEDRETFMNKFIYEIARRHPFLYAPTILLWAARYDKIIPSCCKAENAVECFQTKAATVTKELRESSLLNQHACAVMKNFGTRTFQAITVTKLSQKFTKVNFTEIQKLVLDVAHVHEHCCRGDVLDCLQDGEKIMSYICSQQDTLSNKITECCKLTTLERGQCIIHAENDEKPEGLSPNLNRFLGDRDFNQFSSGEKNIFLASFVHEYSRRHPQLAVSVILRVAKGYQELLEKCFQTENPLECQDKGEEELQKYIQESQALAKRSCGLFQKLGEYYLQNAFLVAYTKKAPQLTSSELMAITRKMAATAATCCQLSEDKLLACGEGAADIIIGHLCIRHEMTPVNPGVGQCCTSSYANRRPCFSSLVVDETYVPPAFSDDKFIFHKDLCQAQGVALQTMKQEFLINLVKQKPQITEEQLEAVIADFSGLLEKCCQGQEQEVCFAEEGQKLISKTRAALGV

As to “M20077 affinity purified polyclonal anti-AFP antibody, Bodipy FL-CASE labeled”, the MIF of Fm in the experiment with Alpha fetoprotein [1] stood at 13; with Alpha fetoprotein [2] it was 33; in the experiment with Alpha fetoprotein [3], 94; with Alpha fetoprotein [4] it was 190; with Alpha fetoprotein [5], 359; with Alpha fetoprotein [6] it was 980. In addition, the MIF of Fm is 24 with Alpha fetoprotein [7]; 48 in experiment [8]; 45 in the experiment with Alpha fetoprotein [9]; 98 with Alpha fetoprotein [10]; 45 in [11]; 49 in experiment [12]. Also, the MIF of Fm in the experiment with Alpha fetoprotein [14] came to 348. In addition, the MIF AVG with Alpha fetoprotein [13] turned out to be 1060. Besides, the MIF of FL1 with Alpha fetoprotein [13] is 1110 and 994 and 1080.
For MAB 384, Bodipy FL-X labeled (antibody), the MIF of Fm was found to be 26 in experiment [15]; 72 with Peptide 1 …-biotin [16]; 1380 in experiment [17]; 42 in the experiment with Peptide 7 …-biotin [18]; 73 with Peptide 8 …-biotin [19]; 60 in experiment [20]. In addition, in [21], the MIF of Fm was 66. Besides, the MIF with Peptide 1 …-biotin [22] was 17; in the experiment with Peptide 2 …-biotin, 19; with Peptide 3 …-biotin, 22; with Peptide 4 …-biotin, 26; in experiment [23], 1020; in the experiment with Peptide 6 …-biotin it was 20. The values for the MIF in the experiment with Peptide 7 …-biotin [24], with Peptide 8 …-biotin [25] and with Peptide 9 …-biotin were 23, 34 and 36, respectively.
Regarding “AB633 affinity purified polyclonal anti-hCG antibody, Bodipy FL-CASE labeled”, the MIF of Fm in experiment [26] is 1290 and 1380; in experiment [27], 120 and 147; in [28], 9290 and 9390; in experiment [29], 8790; in [30] it was 2950; in [31], 2760. For the same substance, the MIF of Fm turned out to be 2420 in [32]; 3160 in experiment [33]; 1520 in experiment [34]; 48 in experiment [35]; 108 in [36]; 2980 in experiment [37]. The substance also had an MIF of Fm in the experiment with Alpha fetoprotein [38] of 50.
